Results reported in paper PMC11812572.

How the values were obtained:
[1] = target: microtubules polymerised from porcine brain tubulin (GMPCPP-stabilised microtubules and seeds, and dynamic microtubules elongating or nucleated from Atto647N- or Atto647-tubulin) (porcine (endogenous in pig brain)) (UniProt P02550); assay: TIRF microscopy; γTuRC nucleation assay: biotinylated mBFP-γTuRC immobilized on the surface, 10 µM Atto647-tubulin and 5-30 nM mScarlet-NuMA^FL; γTuRC-nucleated and spontaneously (solution-) nucleated microtubules compared; γTuRC microscopy buffer, 33°C
microtubules polymerised from porcine brain tubulin (GMPCPP-stabilised microtubules and seeds, and dynamic microtubules elongating or nucleated from Atto647N- or Atto647-tubulin) (porcine (endogenous in pig brain)), sequence (P02550 other isoform, or with tags, fused parts or gaps, chain 1 of 2): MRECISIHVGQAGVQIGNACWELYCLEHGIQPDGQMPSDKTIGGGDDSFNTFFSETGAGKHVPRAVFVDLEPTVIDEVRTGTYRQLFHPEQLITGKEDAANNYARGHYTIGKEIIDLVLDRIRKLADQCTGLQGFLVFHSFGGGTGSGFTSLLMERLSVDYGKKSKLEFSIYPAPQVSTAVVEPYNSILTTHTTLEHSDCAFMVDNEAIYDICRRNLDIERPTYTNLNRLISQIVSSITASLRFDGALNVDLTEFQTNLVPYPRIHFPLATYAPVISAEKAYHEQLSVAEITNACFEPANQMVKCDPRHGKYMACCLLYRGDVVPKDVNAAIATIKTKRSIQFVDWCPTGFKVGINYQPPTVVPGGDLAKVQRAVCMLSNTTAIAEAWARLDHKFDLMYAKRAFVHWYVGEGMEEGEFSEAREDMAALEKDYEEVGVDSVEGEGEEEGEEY
microtubules polymerised from porcine brain tubulin (GMPCPP-stabilised microtubules and seeds, and dynamic microtubules elongating or nucleated from Atto647N- or Atto647-tubulin) (porcine (endogenous in pig brain)), sequence (chain, as listed by the source, chain 2 of 2): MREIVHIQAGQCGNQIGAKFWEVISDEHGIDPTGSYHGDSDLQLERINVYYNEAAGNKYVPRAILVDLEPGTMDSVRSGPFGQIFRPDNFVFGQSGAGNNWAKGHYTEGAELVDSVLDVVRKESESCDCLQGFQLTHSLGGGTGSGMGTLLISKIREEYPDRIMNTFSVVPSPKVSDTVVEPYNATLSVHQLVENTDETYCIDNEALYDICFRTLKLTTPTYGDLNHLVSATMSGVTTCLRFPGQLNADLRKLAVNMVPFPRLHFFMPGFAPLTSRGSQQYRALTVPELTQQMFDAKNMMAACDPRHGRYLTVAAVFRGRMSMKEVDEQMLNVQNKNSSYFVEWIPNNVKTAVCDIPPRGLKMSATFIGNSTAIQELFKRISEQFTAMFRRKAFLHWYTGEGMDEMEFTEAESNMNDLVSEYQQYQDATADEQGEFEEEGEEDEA

[2] = target: microtubules polymerised from porcine brain tubulin (GMPCPP-stabilised microtubules and seeds, and dynamic microtubules elongating or nucleated from Atto647N- or Atto647-tubulin) (porcine (endogenous in pig brain)) (UniProt P02550); assay: TIRF microscopy; microtubules elongating from surface-immobilized GMPCPP-seeds severed by laser ablation in 40 nM mScarlet-NuMA^FL and 10 µM Atto647N-tubulin; NuMA microscopy buffer, 30°C; new minus and plus ends scored

percent of minus ends of spontaneously nucleated microtubules with strong NuMA accumulation (highest NuMA concentration) [1]: 93%
percent of ablation-generated minus ends with NuMA bound [2]: 83%
Substance: mScarlet-tagged full-length human NuMA, mScarlet-NuMA^FL, Q14980-1 1-2115
